This is an account of results in patent publication US11278600B2, “Human alpha-galactosidase variants” (Codexis, Inc., priority 2014, dated 2022).

Format in all cases: biochemical
Data set [1] is described as follows: HTP-analysis of supernatants pretreated with base (MUGal hydrolysis). As to conditions: challenge at pH 9.7; activity of the variant/activity of Rd3BB (SEQ ID NO: 13); yeast supernatant. The essentials: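 Supernatants from INVSc1 yeast expressing GLA variants (SD-Ura, 66-84 h, 30° C) were mixed with McIlvaine buffer pH 7.0-8.2 or 200 mM sodium bicarbonate pH 9.1-9.7 and held 1-18 h at 37° C. Residual activity was then measured on MUGal at pH 4.8/4.3, 37° C, 30-180 min, by fluorescence (Ex 355/Em 448 nm).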

Data set [2] in a line: HTP-analysis of supernatants pretreated with acid (MUGal hydrolysis). As to conditions: challenge at pH 3.3; activity of the variant/activity of Rd3BB (SEQ ID NO: 13); yeast supernatant. A digest of the protocol: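 GLA variants were secreted from INVSc1 yeast grown 66-84 h at 30° C. in SD-Ura with 2% glucose; supernatants were mixed with McIlvaine buffer pH 3.3-4.3 and held at 37° C. for 1-3 h. Residual activity on MUGal at pH 4.8 was then measured by fluorescence.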

Data set [3] can be described thus: HTP-analysis of yeast culture supernatants, no challenge (MUGal hydrolysis). The note with it: activity of the variant/activity of Rd3BB (SEQ ID NO: 13), yeast supernatant. The essentials: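 Activity read as 4-methylumbelliferyl α-D-galactopyranoside hydrolysis: fluorescence (355/448 nm) after sodium carbonate stop, following 30-180 min at 37° C with 2 mM MUGal stock at pH 4.6–4.8. Enzyme source is unchallenged culture supernatant of INVSc1 yeast expressing GLA variants, grown 66-84 h at 30° C.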

B1: 623 (protein)
chain: LDNGLARTPTMGWLHWERFMCNLDCQEEPDSCISEKLFMEMAERMVNEGWKDAGYEYLCIDDCWMAPQRDSEGRLQADPQRFPHGIRQLANYVHSKGLKLGIYADVGNKTCAGFPGSFGYYDIDAQTFADWGVDLLKFDGCYCDSLENLADGYKHMSLALNRTGRPIVYSCEWPLYMWPFQKPNYTEIRQYCNHWRNFADIDDSWASIKSILDWTSRNQERIVDVAGPGGWNDPDMLVIGNFGLSWDQQVTQMALWAIMAAPLFMSNDLRAISPQSKALLQDKDVIAINQDPLGKQGYQLRKGDNFEVWERPLSGDAWAVAIINRQEIGGPRSYTIPVASLGKGVACNPACFITQLLPVKRQLGFYNWTSRLKSHINPTGTVLLQLENTMQTSLKDLL
modifications: Synthetic Polypeptide sequence of Variant No. 623 of mature Human GLA
Take B1: in data set [1], the “Relative Activity of GLA Variants After Challenge at pH 9.7” value (from here on “Relative Activity … at pH 9.7”) is recorded as “++ (++ = >5 to 10 relative activity over Rd3BB (SEQ ID NO: 13))”. Also, in data set [2], the “Relative Activity of GLA Variants After Challenge at pH 3.3” value (shortened to “Relative Activity … at pH 3.3”) is reported as “+++ (+++ = >10 relative activity over Rd3BB (SEQ ID NO: 13))”. Further, the “Relative Activity of GLA Variants After No Challenge (NC)” value in data set [3] is on record as “+ (+ = 1.5 to 5 relative activity over Rd3BB (SEQ ID NO: 13))”.

B2: 624 (protein)
chain: LDNGLARTPTMGWLHWERFMCNLDCQEEPDSCISEKLFMEMAERMVNEGWKDAGYEYLCIDDCWMAPQRDSEGRLQADPQRFPHGIRQLANYVHSKGLKLGIYADVGNKTCAGFPGSFGYYDIDAQTFADWGVDLLKFDGCYCDSLENLADGYKHMSLALNRTGRPIVYSCEWPLYMWPFQKPNYTEIRQYCNHWRNFADIDDSWASIKSILDWTSRNQERIVDVAGPGGWNDPDMLVIGNFGLSWDQQVTQMALWAIMAAPLFMSNDLRAISPQAKALLQDKDVIAINQDPLGKQGYQLRKGDNFEVWERPLSGDAWAVAIINRQEIGGPRSYTIPVASLGKGVACNPACFITQLLPVKRQLGFYNWTSRLKSHINPTGTVLLQLENTQQMSLKDLL
modifications: Synthetic Polypeptide sequence of Variant No. 624 of mature Human GLA
B2: the “Relative Activity … at pH 9.7” value in data set [1] is reported as “++ (++ = >5 to 10 relative activity over Rd3BB (SEQ ID NO: 13))”. Further, the “Relative Activity … at pH 3.3” value in data set [2] is given as “++ (++ = >5 to 10 relative activity over Rd3BB (SEQ ID NO: 13))”. Moreover, the “Relative Activity of GLA Variants After No Challenge (NC)” value in data set [3] is recorded as “+ (+ = 1.5 to 5 relative activity over Rd3BB (SEQ ID NO: 13))”.

B3: 629 (protein)
chain: LDNGLARTPTMGWLHWERFMCNLDCQEEPDSCISEKLFMEMAERMVTEGWKDAGYEYLCIDDCWMAPQRDSEGRLQADPQRFPHGIRQLANYVHSKGLKLGIYADVGNKTCAGFPGSFGYYDIDAQTFADWGVDLLKFDGCYCDSLENLADGYKHMSLALNRTGRPIVYSCEWPLYMWPFQKPNYTEIRQYCNHWRNFADIDDSWASIKSILDWTSRNQERIVDVAGPGGWNDPDMLVIGNFGLSWDQQVTQMALWAIMAAPLFMSNDLRAISPQAKALLQDKDVIAINQDPLGKQGYQLRKGDNFEVWERPLSGDAWAVAIINRQEIGGPRSYTIPVASLGKGVACNPACFITQLLPVKRQLGFYNWTSRLKSHINPTGTVLLQLENTQQMSLKDLL
modifications: Synthetic Polypeptide sequence of Variant No. 629 of mature Human GLA
Regarding B3, the “Relative Activity … at pH 9.7” value in data set [1] was “++ (++ = >5 to 10 relative activity over Rd3BB (SEQ ID NO: 13))”. Also, the “Relative Activity … at pH 3.3” value in data set [2] is on record as “++ (++ = >5 to 10 relative activity over Rd3BB (SEQ ID NO: 13))”. In data set [3], the “Relative Activity of GLA Variants After No Challenge (NC)” value was “+ (+ = 1.5 to 5 relative activity over Rd3BB (SEQ ID NO: 13))”.

B4: 609 (protein)
chain: LDNGLARTPTMGWLHWERFMCNLDCQEEPDSCISEKLFMEMAERMVSEGWKDAGYEYLCIDDCWMAPQRDSEGRLQADPQRFPHGIRQLANYVHSKGLKLGIYADVGNKTCAGFPGSFGYYDIDAQTFADWGVDLLKFDGCYCDSLENLADGYKHMSLALNRTGRPIVYSCEWPLYMWPFQKPNYTEIRQYCNHWRNFADIDDSWASIKSILDWTSRNQERIVDVAGPGGWNDPDMLVIGNFGLSWDQQVTQMALWAIMAAPLFMSNDLRHISPQAKALLQDKDVIAINQDPLGKQGYQLRKGDNFEVWERPLSGDAWAVAIINRQEIGGPRSYTIPVASLGKGVACNPACFITQLLPVKRQLGFYNWTSRLKSHINPTGTVLLQLENTMQMSLKDLL
modifications: Synthetic Polypeptide sequence of Variant No. 609 of mature Human GLA
As for B4, the “Relative Activity … at pH 9.7” value in data set [1] is reported as “++ (++ = >5 to 10 relative activity over Rd3BB (SEQ ID NO: 13))”. Further, the “Relative Activity … at pH 3.3” value in data set [2] is reported as “++ (++ = >5 to 10 relative activity over Rd3BB (SEQ ID NO: 13))”. In addition, the “Relative Activity of GLA Variants After No Challenge (NC)” value in data set [3] is given as “+ (+ = 1.5 to 5 relative activity over Rd3BB (SEQ ID NO: 13))”.

B5: 625 (protein)
chain: LDNGLARTPTMGWLHWERFMCNLDCQEEPDSCISEKLFMEMAERMVTEGWKDAGYEYLCIDDCWMAPQRDSEGRLQADPQRFPHGIRQLANHVHSKGLKLGIYADVGNKTCAGFPGSFGYYDIDAQTFADWGVDLLKFDGCYCDSLENLADGYKHMSLALNRTGRPIVYSCEWPLYMWPFQKPNYTEIRQYCNHWRNFADIDDSWASIKSILDWTSRNQERIVDVAGPGGWNDPDMLVIGNFGLSWDQQVTQMALWAIMAAPLFMSNDLRAISPQAKALLQDKDVIAINQDPLGKQGYQLRKGDNFEVWERPLSGDAWAVAIINRQEIGGPRSYTIPVASLGKGVACNPACFITQLLPVKRQLGFYNWTSRLKSHINPTGTVLLQLENTMQTSLKDLL
modifications: Synthetic Polypeptide sequence of Variant No. 625
With B5, the “Relative Activity … at pH 9.7” value in data set [1] is recorded as “++ (++ = >5 to 10 relative activity over Rd3BB (SEQ ID NO: 13))”. Further, the “Relative Activity … at pH 3.3” value in data set [2] is reported as “++ (++ = >5 to 10 relative activity over Rd3BB (SEQ ID NO: 13))”. The “Relative Activity of GLA Variants After No Challenge (NC)” value in data set [3] is given as “+ (+ = 1.5 to 5 relative activity over Rd3BB (SEQ ID NO: 13))”.

B6: 626 (protein)
chain: LDNGLARTPTMGWLHWERFMCNLDCQEEPDSCISEKLFMEMAERMVSEGWKDAGYEYLCIDDCWMAPQRDSEGRLQADPQRFPHGIRQLANHVHSKGLKLGIYADVGNKTCAGFPGSFGYYDIDAQTFADWGVDLLKFDGCYCDSLENLADGYKHMSLALNRTGRPIVYSCEWPLYMWPFQKPNYTEIRQYCNHWRNFADIDDSWASIKSILDWTSRNQERIVDVAGPGGWNDPDMLVIGNFGLSWDQQVTQMALWAIMAAPLFMSNDLRAISPQAKALLQDKDVIAINQDPLGKQGYQLRKGDNFEVWERPLSGDAWAVAIINRQEIGGPRSYTIPVASLGKGVACNPACFITQLLPVKRQLGFYNWTSRLKSHINPTGTVLLQLENTQQMSLKDLL
modifications: Synthetic Polypeptide sequence of Variant No. 626 of mature Human GLA
In the case of B6, in data set [1], the “Relative Activity … at pH 9.7” value was “++ (++ = >5 to 10 relative activity over Rd3BB (SEQ ID NO: 13))”. In addition, the “Relative Activity … at pH 3.3” value in data set [2] is “++ (++ = >5 to 10 relative activity over Rd3BB (SEQ ID NO: 13))”. Also, the “Relative Activity of GLA Variants After No Challenge (NC)” value in data set [3] is “+ (+ = 1.5 to 5 relative activity over Rd3BB (SEQ ID NO: 13))”.

B7: 627 (protein)
chain: LDNGLARTPTMGWLHWERFMCNLDCQEEPDSCISEKLFMEMAERMVNEGWKDAGYEYLCIDDCWMAPQRDSEGRLQADPQRFPHGIRQLANHVHSKGLKLGIYADVGNKTCAGFPGSFGYYDIDAQTFADWGVDLLKFDGCYCDSLENLADGYKHMSLALNRTGRPIVYSCEWPLYMWPFQKPNYTEIRQYCNHWRNFADIDDSWASIKSILDWTSRNQERIVDVAGPGGWNDPDMLVIGNFGLSWDQQVTQMALWAIWAAPLFMSNDLRAISPQAKALLQDKDVIAINQDPLGKQGYQLRKGDNFEVWERPLSGDAWAVAIINRQEIGGPRSYTIPVASLGKGVACNPACFITQLLPVKRQLGFYNWTSRLKSHINPTGTVLLQLENTHQTSLKDLL
modifications: Synthetic Polypeptide sequence of Variant No. 627 of mature Human GLA
On to B7, for which the “Relative Activity … at pH 9.7” value in data set [1] is reported as “++ (++ = >5 to 10 relative activity over Rd3BB (SEQ ID NO: 13))”. Also, the “Relative Activity … at pH 3.3” value in data set [2] was “− (− = <1.5 relative activity to Rd3BB (SEQ ID NO: 13))”. Further, the “Relative Activity of GLA Variants After No Challenge (NC)” value in data set [3] is given as “+ (+ = 1.5 to 5 relative activity over Rd3BB (SEQ ID NO: 13))”.

B8: 628 (protein)
chain: LDNGLARTPTMGWLHWERFMCNLDCQEEPDSCISEKLFMEMAERMVNEGWKDAGYEYLCIDDCWMAPQRDSEGRLQADPQRFPHGIRQLANHVHSKGLKLGIYADVGNKTCAGFPGSFGYYDIDAQTFADWGVDLLKFDGCYCDSLENLADGYKHMSLALNRTGRPIVYSCEWPLYMWPFQKPNYTEIRQYCNHWRNFADIDDSWASIKSILDWTSRNQERIVDVAGPGGWNDPDMLVIGNFGLSWDQQVTQMALWAIMAAPLFMSNDLRAISPQAKALLQDKDVIAINQDPLGKQGYQLRKGDNFEVWERPLSGDAWAVAIINRQEIGGPRSYTIPVASLGKGVACNPACFITQLLPVKRQLGFYNWTSRLKSHINPTGTVLLQLENTHQMSLKDLL
modifications: Synthetic Polypeptide sequence of Variant No. 628 of mature Human GLA
With B8, the “Relative Activity … at pH 9.7” value in data set [1] is on record as “++ (++ = >5 to 10 relative activity over Rd3BB (SEQ ID NO: 13))”. Besides, in data set [2], the “Relative Activity … at pH 3.3” value is “+ (+ = 1.5 to 5 relative activity over Rd3BB (SEQ ID NO: 13))”. Also, the “Relative Activity of GLA Variants After No Challenge (NC)” value in data set [3] is “+ (+ = 1.5 to 5 relative activity over Rd3BB (SEQ ID NO: 13))”.
